Measurements published in patent US20050282743A1, “Molecular interactions in cells” (Arbor Vita Corporation, priority 2001, published 2005).

Key:
Assay in all cases: G' assay
[1] = biological target: T1, GST-AIPC PDZ domain 1 (Homo sapiens (Human)), O15018
T1 chain: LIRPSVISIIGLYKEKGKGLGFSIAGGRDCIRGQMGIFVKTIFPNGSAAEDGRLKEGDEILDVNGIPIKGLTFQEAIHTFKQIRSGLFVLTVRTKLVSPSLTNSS

[2] = biological target: T2, GST-APXL-1 PDZ domain 1 (Homo sapiens (Human)), Q13796
T2 chain: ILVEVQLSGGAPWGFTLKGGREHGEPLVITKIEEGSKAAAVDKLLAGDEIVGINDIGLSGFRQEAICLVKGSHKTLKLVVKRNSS

[3] = biological target: GST-BAI-1 Associated Protein PDZ domain 6 (Homo sapiens (Human)), Q96QZ7
[4] = biological target: T3, GST-ENIGMA PDZ domain 1 (Homo sapiens (Human)), Q9NR12
T3 chain: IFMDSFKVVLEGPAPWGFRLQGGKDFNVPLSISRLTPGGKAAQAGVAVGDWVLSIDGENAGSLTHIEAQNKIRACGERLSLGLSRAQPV

[5] = biological target: T4, GST-KIAA0382 PDZ domain 1 (Canis lupus familiaris (Dog) (Canis familiaris)), A0A8I3
T4 chain: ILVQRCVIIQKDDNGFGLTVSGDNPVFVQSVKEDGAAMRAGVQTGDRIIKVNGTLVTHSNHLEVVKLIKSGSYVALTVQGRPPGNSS

[6] = biological target: T5, GST-KIAA0807(S) PDZ domain 1 (Homo sapiens (Human)), Q6P0Q8
T5 chain: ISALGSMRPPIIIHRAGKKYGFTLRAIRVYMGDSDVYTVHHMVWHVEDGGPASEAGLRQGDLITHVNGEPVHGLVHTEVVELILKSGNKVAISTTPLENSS

[7] = biological target: T6, GST-KIAA0973 PDZ domain 1 (Homo sapiens (Human)), Q9Y2H9
T6 chain: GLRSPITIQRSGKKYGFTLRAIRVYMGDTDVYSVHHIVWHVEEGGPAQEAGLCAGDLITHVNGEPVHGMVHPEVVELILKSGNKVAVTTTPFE

[8] = biological target: T7, GST-KIAA1526 PDZ domain 1 (Homo sapiens (Human)), Q9P202
T7 chain: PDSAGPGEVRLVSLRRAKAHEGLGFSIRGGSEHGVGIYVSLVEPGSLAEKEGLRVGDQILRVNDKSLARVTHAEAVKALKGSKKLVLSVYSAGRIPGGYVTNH

[9] = biological target: GST-KIAA1634 PDZ domain 5 (Homo sapiens (Human)), Q5TCQ9
[10] = biological target: GST-KIAA807 [GST: P08515]
[11] = biological target: T8, GST-LIM Mystique PDZ domain 1 (Homo sapiens (Human)), Q96JY6
T8 chain: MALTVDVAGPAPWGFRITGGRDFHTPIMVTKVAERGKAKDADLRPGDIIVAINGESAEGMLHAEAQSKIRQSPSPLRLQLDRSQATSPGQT

[12] = biological target: T9, GST-LIM-RIL PDZ domain 1 (Homo sapiens (Human)), P50479
T9 chain: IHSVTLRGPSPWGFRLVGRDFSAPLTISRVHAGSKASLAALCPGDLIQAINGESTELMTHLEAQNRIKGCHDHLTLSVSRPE

[13] = biological target: T10, GST-MINT1 PDZ domain 2 (Mus musculus (Mouse)), B2RUJ5
T10 chain: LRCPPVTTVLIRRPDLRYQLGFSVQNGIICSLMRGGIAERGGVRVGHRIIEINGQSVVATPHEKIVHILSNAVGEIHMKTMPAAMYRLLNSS

[14] = biological target: T11, GST-MUPP1 PDZ domain 13 (Homo sapiens (Human)), O75970
T11 chain: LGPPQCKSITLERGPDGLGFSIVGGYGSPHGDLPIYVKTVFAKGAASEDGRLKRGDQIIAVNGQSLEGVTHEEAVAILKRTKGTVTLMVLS

[15] = biological target: T12, GST-MUPP1 PDZ domain 7 (Homo sapiens (Human)), O75970
T12 chain: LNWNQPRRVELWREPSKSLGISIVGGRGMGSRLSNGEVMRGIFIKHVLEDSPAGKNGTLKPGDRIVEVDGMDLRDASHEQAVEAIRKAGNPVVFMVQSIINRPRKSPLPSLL

[16] = biological target: T13, GST-MUPP1 PDZ domain 9 (Homo sapiens (Human)), O75970
T13 chain: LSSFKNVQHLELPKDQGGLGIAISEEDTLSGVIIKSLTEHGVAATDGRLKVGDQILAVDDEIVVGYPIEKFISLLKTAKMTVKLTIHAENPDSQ

[17] = biological target: GST-PAR3 PDZ domain 3 (Homo sapiens (Human)), Q8TEW0
[18] = biological target: T14, GST-PTPL1 PDZ domain 2 (Homo sapiens (Human)), Q12923
T14 chain: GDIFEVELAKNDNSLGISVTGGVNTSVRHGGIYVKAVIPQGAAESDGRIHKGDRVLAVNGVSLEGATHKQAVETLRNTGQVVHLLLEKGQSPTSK

[19] = biological target: T15, GST-Shank 1 PDZ domain 1 (Homo sapiens (Human)), Q9UPX8
T15 chain: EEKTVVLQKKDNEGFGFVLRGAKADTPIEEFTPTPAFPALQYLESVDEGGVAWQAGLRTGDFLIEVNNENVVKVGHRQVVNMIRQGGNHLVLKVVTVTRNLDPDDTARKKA

[20] = biological target: T16, GST-novel PDZ gene PDZ domain 1 (Homo sapiens (Human)), Q9H5P4
T16 chain: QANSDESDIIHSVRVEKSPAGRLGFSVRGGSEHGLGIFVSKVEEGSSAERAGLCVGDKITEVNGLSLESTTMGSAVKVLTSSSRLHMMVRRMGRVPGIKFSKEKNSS

[21] = biological target: GST-BAI-1 Associated Protein PDZ domain 2 (Mus musculus (Mouse)), Q6RHR9
[22] = biological target: GST-BAI-1 Associated Protein PDZ domain 4 (Homo sapiens (Human)), Q96QZ7
[23] = biological target: T17, GST-KIAA0303 PDZ domain 1 (Homo sapiens (Human)), O15021
T17 chain: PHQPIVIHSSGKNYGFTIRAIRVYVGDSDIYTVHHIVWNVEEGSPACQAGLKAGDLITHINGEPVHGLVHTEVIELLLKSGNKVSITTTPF

[24] = biological target: GST-PSD95 PDZ domains 1, 2, 3 (Homo sapiens), P78352
[25] = biological target: T18, GST-TIP1 PDZ domain 1 (Table 9 insert) (Homo sapiens (Human)), O14907
T18 chain: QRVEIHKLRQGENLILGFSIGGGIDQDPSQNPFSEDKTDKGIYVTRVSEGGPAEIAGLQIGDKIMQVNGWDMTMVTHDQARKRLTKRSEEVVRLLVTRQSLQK

[26] = biological target: T19, GST-ZO-1 PDZ domain 1 (Rattus norvegicus (Rat)), A0A0G2
T19 chain: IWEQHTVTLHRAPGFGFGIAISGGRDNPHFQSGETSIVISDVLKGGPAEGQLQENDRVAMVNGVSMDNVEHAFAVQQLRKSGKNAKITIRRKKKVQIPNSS

[27] = biological target: T20, GST-ZO-1 PDZ domain 2 (Rattus norvegicus (Rat)), A0A0G2
T20 chain: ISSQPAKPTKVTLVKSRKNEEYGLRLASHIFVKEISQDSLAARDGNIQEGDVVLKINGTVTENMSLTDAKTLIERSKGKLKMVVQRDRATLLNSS

[28] = biological target: T21, GST-ZO-2 PDZ domain 2 (Homo sapiens (Human)), Q9UDY2
T21 chain: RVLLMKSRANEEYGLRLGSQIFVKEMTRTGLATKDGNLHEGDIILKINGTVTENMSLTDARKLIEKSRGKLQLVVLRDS

Measured: Classification
Also: key of the grades not given here.

Sequence of GST-KIAA807 [GST: P08515] (P08515 whole entry, the tested form may be a part): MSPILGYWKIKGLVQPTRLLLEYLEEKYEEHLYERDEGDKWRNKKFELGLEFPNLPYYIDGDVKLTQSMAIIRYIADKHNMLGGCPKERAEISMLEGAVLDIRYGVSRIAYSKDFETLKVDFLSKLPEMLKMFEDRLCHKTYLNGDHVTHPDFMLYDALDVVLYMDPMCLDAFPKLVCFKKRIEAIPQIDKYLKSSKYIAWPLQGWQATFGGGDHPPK
Sequence of GST-KIAA1634 PDZ domain 5 (Homo sapiens (Human)), Q5TCQ9 (Q5TCQ9 other isoform, or with tags, fused parts or gaps): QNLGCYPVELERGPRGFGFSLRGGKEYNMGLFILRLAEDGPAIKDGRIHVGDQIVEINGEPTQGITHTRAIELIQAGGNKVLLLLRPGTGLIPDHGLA
Sequence of GST-BAI-1 Associated Protein PDZ domain 4 (Homo sapiens (Human)), Q96QZ7 (Q96QZ7 other isoform, or with tags, fused parts or gaps): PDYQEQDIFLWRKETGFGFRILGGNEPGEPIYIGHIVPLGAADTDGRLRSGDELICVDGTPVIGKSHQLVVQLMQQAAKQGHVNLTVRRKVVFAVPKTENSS
Sequence of GST-BAI-1 Associated Protein PDZ domain 6 (Homo sapiens (Human)), Q96QZ7 (Q96QZ7 1143-1233): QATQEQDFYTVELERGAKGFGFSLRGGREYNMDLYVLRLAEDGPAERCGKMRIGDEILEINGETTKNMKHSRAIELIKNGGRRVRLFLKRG
Sequence of GST-BAI-1 Associated Protein PDZ domain 2 (Mus musculus (Mouse)), Q6RHR9 (Q6RHR9 455-558): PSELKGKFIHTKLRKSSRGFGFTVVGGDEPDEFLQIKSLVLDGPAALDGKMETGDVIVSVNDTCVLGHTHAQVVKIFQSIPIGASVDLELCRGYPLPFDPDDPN
Sequence of GST-PSD95 PDZ domains 1, 2, 3 (Homo sapiens), P78352 (P78352 62-395): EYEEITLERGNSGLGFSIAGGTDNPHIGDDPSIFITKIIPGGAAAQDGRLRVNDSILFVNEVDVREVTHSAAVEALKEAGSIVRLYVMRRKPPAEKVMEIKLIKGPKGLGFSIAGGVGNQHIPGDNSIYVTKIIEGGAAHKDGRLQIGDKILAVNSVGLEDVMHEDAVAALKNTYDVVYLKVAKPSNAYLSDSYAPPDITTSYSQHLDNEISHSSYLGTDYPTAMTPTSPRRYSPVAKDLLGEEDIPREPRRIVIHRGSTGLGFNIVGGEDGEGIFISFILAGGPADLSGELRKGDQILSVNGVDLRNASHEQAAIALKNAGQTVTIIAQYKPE
Sequence of GST-PAR3 PDZ domain 3 (Homo sapiens (Human)), Q8TEW0 (Q8TEW0 579-681): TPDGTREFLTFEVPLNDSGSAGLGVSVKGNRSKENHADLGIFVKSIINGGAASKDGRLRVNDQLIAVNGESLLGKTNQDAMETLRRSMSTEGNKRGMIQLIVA

B1: zona occludens 3 (ZO-3) PL peptide (peptide)
peptide: VHDAESSDEDGYDWGPATDL
modifications: not checked
1 A450 class: [1] | [4] | [8] | [9] | [15] | [16] | [17] | [19] | [20]
2 A450 class: [2] | [3] | [5] | [7] | [11] | [12] | [13] | [14] | [18]
5 A450 class: [6] | [10]

B2: alpha-2B Adrenergic receptor (peptide)
peptide: QDFRRAFRRILARPWTQTAW
modifications: not checked
5 A450 class: [22] | [24] | [25]
4 A450 class: [21] | [23] | [10]

B3: neurofascin (chicken) (peptide)
peptide: TEGNESSEATSPVNAIYSLA
modifications: not checked
1 A450 class: [8] | [26] | [27] | [28]
